Test results from article PMC11615384, “Frequent transitions in self-assembly across the evolution of a central metabolic enzyme” (Nature Communications, 2024).
Positions count from the first letter of the chain named. Names and notes keep the numbering of the source. Values joined by “and” are separate entries in the source; they are usually repeats but may differ in a detail not shown here. Equal entries are not always repeated.

Tests used:
[1] = biological target: type II citrate synthase of F. taffensis (F. taffensis); assay: mass photometry; self-assembly of the purified protein in solution; final concentration 12.5 to 50 nM; PBS or 20 mM Tris, 200 mM NaCl pH 7.5; OneMP or TwoMP
[2] = biological target: citrate synthase from M. sulfidovorans W150A (M. sulfidovorans); assay: as above
[3] = biological target: non-mitochondrial citrate synthase (nmCS) of C. fasciculata (C. fasciculata); assay: as above
[4] = biological target: non-mitochondrial citrate synthase (nmCS) of Chlamydomonas reinhardtii (Chlamydomonas reinhardtii); assay: as above
[5] = biological target: CS from a Myxococcota species (a Myxococcota species); assay: as above
[6] = biological target: non-mitochondrial citrate synthase (nmCS) of Ananas comosus (Ananas comosus); assay: as above
[7] = biological target: non-mitochondrial citrate synthase (nmCS) of Ananas comosus (Ananas comosus); assay: mass photometry; with high quantities of acetyl-CoA: prediluted protein (2 µM) incubated for 10 min with the substrate, same concentration in the buffer of the gasket
[8] = biological target: T1, CS from A. comosus (nmCS) (Ananas comosus, UniProt A0A6P5F0R3); assay: mass photometry, oligomeric state shift; format: binding; details: 10 min preincubation with high acetyl-CoA; octamers shift to mix of hexamers and octamers
T1 construct: gene LOC109710921; non-mitochondrial CS with C-terminal LE-HHHHHH tag, expressed in E. coli BL21(DE3); octamer (ring of four dimers); C-terminus extends to residue 513

[9] = biological target: type II citrate synthase of C. woesi (C. woesi); assay: mass photometry; self-assembly of the purified protein in solution; final concentration 12.5 to 50 nM; PBS or 20 mM Tris, 200 mM NaCl pH 7.5; OneMP or TwoMP
[10] = biological target: citrate synthase (type III CS) from M. sulfidovorans (M. sulfidovorans); assay: as above
purified protein [11] = substrate: O=C(O)CC(=O)C(=O)O; assay: purified protein; format: biochemical, Deinococcus pimensis; details: 50 mM Tris pH 7.5, 10 mM KCl, 25 °C, 25 nM enzyme, unseparated sample, varied substrate not named in main text
[12] = biological target: the molecule itself; assay: mass photometry; self-assembly of the purified protein in solution; final concentration 12.5 to 50 nM; PBS or 20 mM Tris, 200 mM NaCl pH 7.5; OneMP or TwoMP
purified protein [13] = substrate: O=C(O)CC(=O)C(=O)O; assay: purified protein; format: biochemical, Methylophaga sulfidovorans; details: 50 mM Tris pH 7.5, 10 mM KCl, 25 °C, 25 nM enzyme, varied substrate not named in main text

T1 sequence (A0A6P5F0R3 entry or part of it): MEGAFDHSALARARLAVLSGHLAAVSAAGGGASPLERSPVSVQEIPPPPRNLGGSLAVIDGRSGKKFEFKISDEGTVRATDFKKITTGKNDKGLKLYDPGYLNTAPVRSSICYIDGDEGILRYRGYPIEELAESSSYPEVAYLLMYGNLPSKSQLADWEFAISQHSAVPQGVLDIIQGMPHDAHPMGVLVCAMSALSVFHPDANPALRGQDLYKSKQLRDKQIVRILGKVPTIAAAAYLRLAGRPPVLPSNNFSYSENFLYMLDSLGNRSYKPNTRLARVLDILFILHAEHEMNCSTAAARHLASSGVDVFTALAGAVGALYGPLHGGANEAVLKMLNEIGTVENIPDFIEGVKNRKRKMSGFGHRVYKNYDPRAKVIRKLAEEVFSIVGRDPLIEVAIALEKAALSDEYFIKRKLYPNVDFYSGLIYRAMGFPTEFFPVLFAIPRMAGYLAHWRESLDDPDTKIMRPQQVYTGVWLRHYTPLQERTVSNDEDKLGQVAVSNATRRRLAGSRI

type II citrate synthase of F. taffensis (enzyme)
stoichiometry N [1]: 2

citrate synthase from M. sulfidovorans W150A (enzyme)
stoichiometry N [2]: 2

non-mitochondrial citrate synthase (nmCS) of C. fasciculata (enzyme)
stoichiometry N [3]: 6

non-mitochondrial citrate synthase (nmCS) of Chlamydomonas reinhardtii (enzyme)
stoichiometry N [4]: 2

CS from a Myxococcota species (enzyme)
stoichiometry N [5]: 2

non-mitochondrial citrate synthase (nmCS) of Ananas comosus (enzyme)
stoichiometry N [6]: 8
stoichiometry N [7]: 6 and 8

CC(=O)SCCNC(=O)CCNC(=O)[C@H](O)C(C)(C)COP(=O)(O)OP(=O)(O)OC[C@H]1O[C@@H](n2cnc3c(N)ncnc32)[C@H](O)[C@@H]1OP(=O)(O)O [acetyl-CoA]
mass photometry, oligomeric state shift [8]: shift the oligomeric state of the CS from A. comosus from octamers

type II citrate synthase of C. woesi (enzyme)
stoichiometry N [9]: 2

citrate synthase (type III CS) from M. sulfidovorans (enzyme)
stoichiometry N [10]: 6

B1: CS from D. pimensis (Dp) (Deinococcus pimensis) (protein)
chain: MTTTIAKGLEGVLFTETKLTFINGTEGVLTHLGIPIQEWAEKSTFEELSFALLHGKLPTREELAAFDADLKANRAVPAELITAIRAYPRDVHPMQALRTAASHLGLLDADAEDTSAEGRYRIGVRMIAQFSTIIAAIARAQDGQDPVEPRADLTHAGNFLYMLNGQEPSAEQARLFDIALILHADHGMNASTFTAIATASTLSDMYSSVVSAIGALKGPLHGGANEAVMDMLDEIGTVDAAVPFITQKLDNKEKIMGVGHRVYKYFDPRSRVLRDYAAHVSEKQGKSHYYSILETIEKEIVERLGGKGIYPNVDFYSGVVYSDLGIKKSFFTPIFALARISGWVASVTEYTANNRLLRPDAVYVGARDQHYVEIDERK
notes: full-length with C-terminal LE-HHHHHH tag, expressed in E. coli BL21(DE3); type I CS, polydisperse oligomer (dimers to >=8 subunits)
Km (purified protein [11]): 25.4 ± 3.1 µM
kcat (purified protein [11]): 36.6 ± 1.1 s⁻¹

B2: non-mitochondrial citrate synthase (nmCS) of P. olsenii (enzyme)
chain: MDRLNTVAAHVAPTLTITDNRSGKKIDVKVKDGTIRATDLKQLGIQTYDPGYMNTTCCVSRISFIDGNRGVLRYRGYPIEQLAQDSSFTEVAFLLQYGELPTRGQLTQWEQDLMRHSMLHQDVATLTSAFRYDAHPMGMFVSAMAALGTLHPETNPALTSQNIYKDKAVRNKEIARILGSATTLAAMAYRHRMGRPFNTPNSDLGYTENFLYMLDVSHEGTSYRPHPKLVKALDVLFVLHAEHELNCSTSAMRHLTSSNVDVYTACAAAAGALYGPRHGGANEAVLRMLERIGSIENVPTFVDKVKQRKELLMGFGHRVYKHYDPRATIVRKIAEDVFEICGREPLIEVAMDLERIALSDPYFKDRKLYPNVDFYSGLIYKAMGFPTDMFPILFTVPRLAGWLAHWSEWIDDPENRIYRPFQVYKGYDKRDYVQVDERSEKVHSKELTVKRSAFNRRRDASLQSAAADRSEYEWIKD
stoichiometry N [12]: 6

B3: A. comosus CS Δ487-513, variant in which the extended C-terminus was deleted (domain or fragment)
chain: MEGAFDHSALARARLAVLSGHLAAVSAAGGGASPLERSPVSVQEIPPPPRNLGGSLAVIDGRSGKKFEFKISDEGTVRATDFKKITTGKNDKGLKLYDPGYLNTAPVRSSICYIDGDEGILRYRGYPIEELAESSSYPEVAYLLMYGNLPSKSQLADWEFAISQHSAVPQGVLDIIQGMPHDAHPMGVLVCAMSALSVFHPDANPALRGQDLYKSKQLRDKQIVRILGKVPTIAAAAYLRLAGRPPVLPSNNFSYSENFLYMLDSLGNRSYKPNTRLARVLDILFILHAEHEMNCSTAAARHLASSGVDVFTALAGAVGALYGPLHGGANEAVLKMLNEIGTVENIPDFIEGVKNRKRKMSGFGHRVYKNYDPRAKVIRKLAEEVFSIVGRDPLIEVAIALEKAALSDEYFIKRKLYPNVDFYSGLIYRAMGFPTEFFPVLFAIPRMAGYLAHWRESLDDPDTKIMRPQQVYTGVWLRHYTPLQERLEHHHHHH
stoichiometry N [12]: 2

B4: CS from M. sulfidovorans (type III) (Methylophaga sulfidovorans) (protein)
chain: MSDFLPGLEGVPATKSAISFIDGEKGILSYRGYPLETLAENSTFEETTLLLLDGELPTKKALNDFSQQLKDNYRIKYHIRQMMRHFPHTGHPMDMLQTAVSSLGMFYPGTECLTDANSCEDLDYVRNMTVNIIAQMAPLVAMWEHIRNGWDPVNPKHDLSVAENLLYMFNGEEPDPLMAKIMDVCLILHAEHTLNASTFAALVAGSTLATPYSVISAAIGTLSGPLHGGANQRVVGMLQEIGSPKNVESWVDEKLKNKEVIWGMGHREYKVKDPRATILHKLVEQLVAERGGHLDDMFDTALKLEEVCADRLGHKGVYPNVDFYSGILYSEMGIPEDEFTALFAVARSAGWLAHWREQISDNRIYRPTQIYVGSDMRDYTPIEER
notes: full-length with C-terminal LE-HHHHHH tag, expressed in E. coli BL21(DE3); type III CS, hexamer (three dimers)
Km (purified protein [13]): 50.5 ± 5.2 µM
kcat (purified protein [13]): 33.3 ± 1.8 s⁻¹

B5: CS from M. sulfidovorans (type III) (Methylophaga sulfidovorans; W150A) (protein)
chain: B4 chain with W150A
notes: as for B4
Km (purified protein [13]; dimeric variant): 36.7 ± 5.7 µM
kcat (purified protein [13]; dimeric variant): 26.7 ± 1.1 s⁻¹
